# Measured values from paper PMC10663505 (Nature Communications, 2023).
# B1: phosphorylated TBK1 (Native-PAGE of Supplementary Fig. S8a) (enzyme, UniProt Q9WUN2 1-729, looked up)
# chain: MQSTSNHLWLLSDILGQGATANVFRGRHKKTGDLYAVKVFNNISFLRPVDVQMREFEVLKKLNHKNIVKLFAIEEETTTRHKVLIMEFCPCGSLYTVLEEPSNAYGLPESEFLIVLRDVVGGMNHLRENGIVHRDIKPGNIMRVIGEDGQSVYKLTDFGAARELEDDEQFVSLYGTEEYLHPDMYERAVLRKDHQKKYGATVDLWSVGVTFYHAATGSLPFRPFEGPRRNKEVMYKIITGKPSGAISGVQKAENGPIDWSGDMPLSCSLSQGLQALLTPVLANILEADQEKCWGFDQFFAETSDVLHRMVIHVFSLQHMTAHKIYIHSYNTAAVFHELVYKQTKIVSSNQELIYEGRRLVLELGRLAQHFPKTTEENPIFVTSREQLNTVGLRYEKISLPKIHPRYDLDGDASMAKAVTGVVCYACRTASTLLLYQELMRKGVRWLVELVKDDYNETVHKKTEVVITLDFCIRNIEKTVKVYEKLMKVNLEAAELGEISDIHTKLLRLSSSQGTIESSLQDISSRLSPGGLLADTWAHQEGTHPRDRNVEKLQVLLNCITEIYYQFKKDKAERRLAYNEEQIHKFDKQKLYYHATKAMSHFSEECVRKYEAFKDKSEEWMRKMLHLRKQLLSLTNQCFDIEEEVSKYQDYTNELQETLPQKMLAASGGVKHAMAPIYPSSNTLVEMTLGMKKLKEEMEGVVKELAENNHILERFGSLTMDGGLRNVDCL
# modifications: phosphorylated (detected with the anti-phosphorylated TBK1 antibody)
# notes: probably endogenous mouse TBK1
# Target: the molecule itself
# Assay: native gel or EMSA
protein,measurement,value
B1,stoichiometry N,2
